Experimental data from patent publication US20250262297A1, “ALLERGY ANTIGEN AND EPITOPE THEREOF” (HOYU CO., LTD., priority 2017, published 2025).

Test system: IgE antibodies from soybean-allergic patients
Assay: Immunoblotting of two-dimensional electrophoresis pattern of soybean proteins with patient serum
Assay type: binding, human
Conditions: spot in 2D electrophoresis gel of soybean proteins; patient serum compared with healthy subject serum
Source text: Transfer to membrane was done using the following transfer system and transfer buffer. • Transfer system: XCell SureLock Mini-Cell and XCell II Blot Module (produced by Life Technologies) • Transfer buffer: NuPAGE Transfer Buffer (X20) (produced by Life Technologies), used in a form diluted 20-fold with milliQ water.
To be specific, proteins in the two-dimensional electrophoresis gels were transferred to a membrane (PVDF membrane) according to the following procedure. • (1) The PVDF membrane was immersed in 100% methanol followed by milliQ water, and then moved into the transfer buffer to hydrophilize the PVDF membrane. • (2) After sponge, filter paper, the gels treated by second-dimensional SDS-PAGE, the hydrophilized PVDF membrane, filter paper, and sponge were put in place in this order, the transfer system was energized at a constant voltage of 30 V for one hour.
Immunoblotting of the membrane was carried out using, as a primary antibody, a serum sample from a patient with a soybean allergy or a serum sample from a healthy subject.
Immunoblotting of the membrane was carried out according to the following procedure. • (1) The transferred membrane was shaken in a 5% skim milk/PBST solution (a PBS buffer containing 0.3% Tween 20 nonionic surfactant) at room temperature for one hour. • (2) The membrane was left to stand in a solution of 3% primary antibody serum in 5% skim milk/PBST at room temperature for one hour. • (3) The membrane was washed with a PBST solution (5 min.×3 times). • (4) The membrane was left to stand in a 1:2500 dilution of the secondary antibody, anti-human IgE-HRP (horseradish peroxidase), with a 3% skim milk/PBST solution at room temperature for one hour. • (5) The membrane was washed with a PBST solution (5 min.×3 times). • (6) The membrane was left to stand in Pierce Western Blotting Substrate Plus (produced by Thermo Fisher Scientific) for 5 minutes.
The membrane obtained through the foregoing series of treatments was subjected to fluorescent image scanning on Typhoon 9400 (produced by GE).
The immunoblots obtained with the serum from the soybean-allergic patient were compared with those obtained with the control serum from the healthy subject.

B1: polyadenylate-binding protein 8 isoform X3 (protein)
chain: MAQVLENPTIDAAASGANPSLTTISLYVGDLHHDVNDPQLYDLFNQVAQVVSVRICRDVATQQSLGYGYVNFSNAHDAAKAIDVLNFTPLNGKIIRIMYSIRDPSARKSGAANVFIKNLDKAIDHKALYDTFSAFGNILSCKVATDASGQSKGHGFVQFESEESAQNAIDKLNGMLINDKQVFVGPFLRKQDRESALSGTKFNNVFVKNLLDSMTEADLERIFGEYGAITSAVVMRDVDGKSKGFGFVNFANVDDAAKAVEALNGKNFDGKEWYVGKAQKKSERELELKGQHEQITKETVDKYHGTNLYIKNLDDSVGDEELMELFSEFGTITSCKVMRDPNGISRGSGFVSFSIAEGATRALGEMNGKMVAGKPLYVALAQRKEDRRARLQAQFSQSRPAAITPNVSPRMPLYPLGAPAIGQQFLYGQAAPATIPQHFVPGMRPGGAPNFYVPLVQQGQQGQRPGGHRGSGPMQQLQQPLPLMHQQMLPRGHVYRYPSGSNMQNIQLAGVPGGMVTYGIGQQMPTQALASALANATPEQQRTMLGEALYPLVDKLEHEAAAKVTGMLLEMDQPEVLHLIESPDALKAKVVEAMDVLKKVTQQQSNSPADQLASLSLNDNVES
With B1 as the molecule, how does the “specific binding to IgE antibodies from soybean-allergic patients” value (“specific binding to IgE antibodies” below) read?
The value was “specific binding”.

B2: protein disulfide isomerase-like protein precursor (protein)
chain: MPKFFHSIFRGTMAGRVSTCFFFVFALSLLLPFQISAEESSEKEFVLTLDHSNFHDTVSKHDFIVVEFYAPWCGHCKKLAPEYEKAASILSSHDPPVVLAKIDANEEKNKDLASQYDVRGYPTIKILRNGGKNVQEYKGPREADGIVDYLKKQSGPASTEIKSADEATAFIGENKVAIVGVFPKFSGEEFDNFSALAEKLRSDYDFGHTLNAKHLPRGESSVSGPVVRLFKPFDELFVDFQDFNVEALEKFVEESSTPVVTVFNNDPSNHPFVAKFFNSPNAKAMLFINFTAEGAESFKSKYREAAEQHKQQGVSFLVGDVESSQGAFQYFGLKEEQVPLIIIQHNDGKKFFKPNLEADHIPTWLKAYKDGNVAPFVKSEPIPEANDEPVKVVVGNSLEDIVFKSGKNVLLEFYAPWCGHCKQLAPILDEVAISYQSDADVVIAKLDATANDIPSETFDVQGYPTVYFRSASGKLSQYEGGRTKEDIIEFIEKNRDKPAQQEQGQDKPAQQEQGQDEQEKGKDEL
modifications: Glycine max
notes: spot also identified as protein disulfide-isomerase
For B2, which “specific binding to IgE antibodies” value is on record?
The value was “specific binding”.

B3: V-type proton ATPase subunit B 2 (protein)
chain: MGVAQNIPDAEEGTLEIGMEYRTVSGVAGPLVILDKVKGPKFQEIVNIRLGDGTTRRGQVLEVDGEKAVVQVFEGTSGIDNKFTTVQFTGEVLKTPVSLDMLGRIFNGSGKPIDNGPPILPEAYLDISGSSINPSERTYPEEMIQTGISTIDVMNSIARGQKIPLFSAAGLPHNEIAAQICRQAGLVKRLEKSDNLLEGGGEEDNFAIVFAAMGVNMETAQFFKRDFEENGSMERVTLFLNLANDPTIERIITPRIALTTAEYLAYECGKHVLVILTDMSSYADALREVSAAREEVPGRRGYPGYMYTDLATIYERAGRIEGRKGSITQIPILTMPNDDITHPTPDLTGYITEGQIYIDRQLYNRQIYPPINVLPSLSRLMKSAIGEGMTRKDHSDVSNQLYANYAIGKDVQAMKAVVGEEALSSEDLLYLEFLEKFERKFVAQGAYDTRNIFQSLDLAWTLLRIFPRELLHRIPAKTLDQFYSRDASN
modifications: Glycine max
For B3, which “specific binding to IgE antibodies” value is on record?
The value was “specific binding”.

B4: guanosine nucleotide diphosphate dissociation inhibitor 2 (protein)
chain: MDEEYDVIVLGTGLKECILSGLLSVDGLKVLHMDRNDYYGGESTSLNLIQLWKRFRGDDKPPPHLGASRDYNIDMNPKFIMANGNLVRVLIHTDVTKYLSFKAVDGSFVFNKGKVHKVPANDMEALKSPLMGLFEKRRARKFFIYVQNYNESDPKTHEGMDLTRVTTKELIAKYGLDDNTIDFIGHALALHSDDRYLAEPALDTVKRMKLYAESLARFQGGSPYIYPLYGLGELPQAFARLSAVYGGTYMLNKPECKVEFDEEGKVVGVTSEGETAKCKKVVCDPSYLPGKVRKVGRVARAIAIMSHPIPSTDDSHSVQIILPQKQLGRKSDMYLFCCSYTHNVAPKGKFIAFVSTEAETDQPAIELKPGIDLLGPVDEIFFDIYDRYEPVNEPTLDNCFVSTSYDATTHFESTVDDVLNMYTLITGKVIDLSVDLSAASAAEE
modifications: Glycine max
B4 was tested. Which “specific binding to IgE antibodies” value did it give?
The value was “specific binding”.

B5: hypothetical protein GLYMA_10G028300 (protein)
chain: ETEVEEEDPELVTCKHQCQQPQQYTEGDKRVCLQRCDRYHRMKQEREKQIQEETREKKEEESREREEEQQEQHEEQDENPYIFEEDKDFETRVETEGGRIRVLKKFTEKSKLLQGIENFRLAILEARAHTFVSPRHFDSEVVFFNIKGRAVLGLVSESETEKITLEPGDMIHIPAGTPLYIVNRDENDKLFLAMLHIPVSVSTPGKFEEFFGPGGRDPESVLSAFSWNVLQAALQTPKGKLEKLFDQQNEGSIFAISREQVRALAPTKKSSWWPFGGESKPQFNIFSKRPTISNGYGRLTEVGPDDDEKSWLQRLNLMLTFTNITQRSMSTIHYNSHATKIALVIDGRGHLQISCPHMSSRSSHSKHDKSSPSYHRISSDLKPGMVFVVPPGHPFVTIASNKENLLMICFEVNARDNKKFTFAGKDNIVSSLDNVAKELAFNYPSEMVNGVFDRKESFFFPFELPREERGRRADA
B5 was tested. Which “specific binding to IgE antibodies” value did it give?
Its value is “specific binding”.

B6: sucrose binding protein homolog S-64 (protein)
chain: ETEVEEDPELVTCKHQCQQQRQYTESDKRTCLQQCDSMKQEREKQVEEETREKEEEHQEQHEEEQDQNPYVFEEDKDFSTRVETEGGSIRVLKKFTEKSKLLQGNENFRLAILEARAHTFVSPRHFDSEVVLFNIKGRAVLGLVRESETEKITLEPGDMIHIPAGTPLYIVNRDENEKLLLAMLHIPVSTPGKFEEFFGPGGRDPESVLSAFSWNVLQAALQTPKGKLERLFNQQNEGSIFKISRERVRALAPTKKSSWWPFGGESKAQFNIFSKRPTFSNGYGRLTEVGPDDEKSWLQRLNLMLTFTNITQRSMSTIHYNSHATKIALVMDGRGHLQISCPHMSSRSDSKHDKSSPSYHRISADLKPGMVFVVPPGHPFVTIASNKENLLIICFEVNVRDNKKFTFAGKDNIVSSLDNVAKELAFNYPSEMVNGVFERKESLFFPFELPSEERGRRAVA
Which “specific binding to IgE antibodies” value does the source give for B6 here?
The value was “specific binding”.

B7: succinyl-CoA ligase [ADP-forming] subunit beta, mitochondrial (protein)
chain: MVRGLLNKLVSRSLSVAGKWQHNQLRRLNIHEYQGAELMSKHGVNVPRGVAVSSVEEARKVIKDLFPNENELVVKSQILAGGRGLGTFKSGLKGGVHIVKTDQVEDIAGKMLGQILVTKQTGPQGKIVSKVYLCEKLSLVNEMYFAITLDRTSAGPIIIACSKGGTSIEDLAEKFPDMIIKVPVDVFEGITDEGAAKVVDGLALKVADRNKSIEQVKNLYKLFVDCDCTLLEINPIAETADNQLVAADAKLNFDDNAAYRQKEIFSLRDTTQEDPREVTAAKADLNYIGLDGEIGCMVNGAGLAMATMDIIKLHGGTPANFLDVGGNASENQVVEAFKILTADDKVKAILVNIFGGIMKCDVIASGIVNAAKEVALKVPVVVRLEGTNVDQGKRILKESGMALITAEDLDDAAQKAVKAAYK
modifications: Glycine max
B7 was tested. Which “specific binding to IgE antibodies” value did it give?
The value was “specific binding”.
